Data from the supplement of paper PMC9112550, “Optimization of the antimicrobial peptide Bac7 by deep mutational scanning” (BMC Biology, 2022).

Test system: Escherichia coli TOP10
Experiment: shrunken log2 fold change of peptide-encoding DNA abundance (4.5 h post-induction vs induction); higher = less antimicrobial activity (less host growth inhibition)
Conditions: time post-induction: 4.5 h; library: site-saturation at positions 5, 18, 19, 20
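Also: peptides expressed intracellularly from a pBAD plasmid library in pooled LB shake-flask culture, induced with 0.3% L-arabinose, DNA abundance read by NGS, three biological replicates, DESeq2 with apeglm shrinkage.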

Sequence	shrunken log2 fold change
RRIRQRPPRLPRPRPRPGKQPRP	-0.117
RRIRQRPPRLPRPRPRPGLNPRP	-0.129
RRIRQRPPRLPRPRPRPGLSPRP	0.0405
RRIRQRPPRLPRPRPRPGLTPRP	-0.483
RRIRQRPPRLPRPRPRPGMFPRP	0.00926
RRIRQRPPRLPRPRPRPGMMPRP	-0.0714
RRIRQRPPRLPRPRPRPGNHPRP	-0.0216
RRIRQRPPRLPRPRPRPGNLPRP	0.0588
RRIRQRPPRLPRPRPRPGRQPRP	0.021
RRIRQRPPRLPRPRPRPGRWPRP	0.446
RRIRQRPPRLPRPRPRPGSPPRP	-0.232
RRIRQRPPRLPRPRPRPGTTPRP	0.155
RRIRQRPPRLPRPRPRPGTWPRP	0.0676
RRIRQRPPRLPRPRPRPGVAPRP	0.207
RRIRQRPPRLPRPRPRPGVFPRP	0.0582
RRIRQRPPRLPRPRPRPGWRPRP	2.71
RRIRQRPPRLPRPRPRPGYVPRP	-0.116
RRIRQRPPRLPRPRPRPGYWPRP	-0.116
RRIRQRPPRLPRPRPRPHACPRP	-0.0973
RRIRQRPPRLPRPRPRPHCKPRP	-0.187
RRIRQRPPRLPRPRPRPHCQPRP	-0.39
RRIRQRPPRLPRPRPRPHFPPRP	-0.216
RRIRQRPPRLPRPRPRPHFQPRP	-0.108
RRIRQRPPRLPRPRPRPHGNPRP	0.0941
RRIRQRPPRLPRPRPRPHGSPRP	-0.00277

Sequence	shrunken log2 fold change
RRIRQRPPRLPRPRPRPHGWPRP	-0.0188
RRIRQRPPRLPRPRPRPHHHPRP	-0.403
RRIRQRPPRLPRPRPRPHHQPRP	0.18
RRIRQRPPRLPRPRPRPHKIPRP	0.00423
RRIRQRPPRLPRPRPRPHKKPRP	-0.215
RRIRQRPPRLPRPRPRPHLNPRP	-0.29
RRIRQRPPRLPRPRPRPHNNPRP	-0.748
RRIRQRPPRLPRPRPRPHQTPRP	-0.0333
RRIRQRPPRLPRPRPRPHRFPRP	-0.275
RRIRQRPPRLPRPRPRPHSVPRP	-0.0178
RRIRQRPPRLPRPRPRPHTKPRP	-0.213
RRIRQRPPRLPRPRPRPHVTPRP	0.0406
RRIRQRPPRLPRPRPRPICKPRP	-0.00411
RRIRQRPPRLPRPRPRPIDAPRP	0.000655
RRIRQRPPRLPRPRPRPIDGPRP	0.0784
RRIRQRPPRLPRPRPRPIDPPRP	0.0328
RRIRQRPPRLPRPRPRPIEIPRP	-0.0062
RRIRQRPPRLPRPRPRPIEKPRP	0.0125
RRIRQRPPRLPRPRPRPIFMPRP	-0.00126
RRIRQRPPRLPRPRPRPIGHPRP	-0.281
RRIRQRPPRLPRPRPRPIGPPRP	0.229
RRIRQRPPRLPRPRPRPIHPPRP	-0.0838
RRIRQRPPRLPRPRPRPIIEPRP	-0.504
RRIRQRPPRLPRPRPRPIIVPRP	-0.0856
RRIRQRPPRLPRPRPRPIKAPRP	0.00249

Sequence	shrunken log2 fold change
RRIRQRPPRLPRPRPRPIKEPRP	-0.023
RRIRQRPPRLPRPRPRPIKKPRP	-0.1
RRIRQRPPRLPRPRPRPILAPRP	0.465
RRIRQRPPRLPRPRPRPIMLPRP	-0.433
RRIRQRPPRLPRPRPRPINEPRP	0.0162
RRIRQRPPRLPRPRPRPIRTPRP	-0.0597
RRIRQRPPRLPRPRPRPIRVPRP	-0.00674
RRIRQRPPRLPRPRPRPISGPRP	-0.018
RRIRQRPPRLPRPRPRPISVPRP	0.136
RRIRQRPPRLPRPRPRPITQPRP	-0.132
RRIRQRPPRLPRPRPRPITYPRP	-0.402
RRIRQRPPRLPRPRPRPIWQPRP	-0.049
RRIRQRPPRLPRPRPRPKAPPRP	0.653
RRIRQRPPRLPRPRPRPKCNPRP	-0.472
RRIRQRPPRLPRPRPRPKEHPRP	-0.117
RRIRQRPPRLPRPRPRPKEYPRP	0.0124
RRIRQRPPRLPRPRPRPKGMPRP	0.0157
RRIRQRPPRLPRPRPRPKGRPRP	0.0377
RRIRQRPPRLPRPRPRPKHWPRP	0.0984
RRIRQRPPRLPRPRPRPKIGPRP	-0.0543
RRIRQRPPRLPRPRPRPKLCPRP	0.0303
RRIRQRPPRLPRPRPRPKPFPRP	-0.101
RRIRQRPPRLPRPRPRPKQMPRP	0.114
RRIRQRPPRLPRPRPRPKRFPRP	-0.0339
RRIRQRPPRLPRPRPRPKSLPRP	-0.0933

Sequence	shrunken log2 fold change
RRIRQRPPRLPRPRPRPKTAPRP	0.0173
RRIRQRPPRLPRPRPRPKVDPRP	0.129
RRIRQRPPRLPRPRPRPKVFPRP	-0.00192
RRIRQRPPRLPRPRPRPKVTPRP	0.0375
RRIRQRPPRLPRPRPRPKWIPRP	-0.0524
RRIRQRPPRLPRPRPRPKWRPRP	0.0839
RRIRQRPPRLPRPRPRPKWSPRP	0.0364
RRIRQRPPRLPRPRPRPKYAPRP	-0.285
RRIRQRPPRLPRPRPRPKYQPRP	-0.369
RRIRQRPPRLPRPRPRPKYTPRP	-0.776
RRIRQRPPRLPRPRPRPLAQPRP	0.233
RRIRQRPPRLPRPRPRPLCFPRP	-0.302
RRIRQRPPRLPRPRPRPLCVPRP	-0.183
RRIRQRPPRLPRPRPRPLDTPRP	-0.144
RRIRQRPPRLPRPRPRPLEDPRP	0.0428
RRIRQRPPRLPRPRPRPLFKPRP	-0.387
RRIRQRPPRLPRPRPRPLHRPRP	-0.11
RRIRQRPPRLPRPRPRPLLLPRP	-0.363
RRIRQRPPRLPRPRPRPLLTPRP	-0.235
RRIRQRPPRLPRPRPRPLMAPRP	-0.0462
RRIRQRPPRLPRPRPRPLMQPRP	0.0776
RRIRQRPPRLPRPRPRPLMWPRP	0.0648
RRIRQRPPRLPRPRPRPLPQPRP	0.337
RRIRQRPPRLPRPRPRPLPVPRP	0.21
RRIRQRPPRLPRPRPRPLQQPRP	-0.123

Sequence	shrunken log2 fold change
RRIRQRPPRLPRPRPRPLQWPRP	0.123
RRIRQRPPRLPRPRPRPLREPRP	1.44
RRIRQRPPRLPRPRPRPLRPPRP	0.699
RRIRQRPPRLPRPRPRPLSHPRP	-0.168
RRIRQRPPRLPRPRPRPLWCPRP	-0.24
RRIRQRPPRLPRPRPRPLWGPRP	-0.0254
RRIRQRPPRLPRPRPRPLWIPRP	-0.0179
RRIRQRPPRLPRPRPRPLYDPRP	-0.226
RRIRQRPPRLPRPRPRPLYIPRP	-0.659
RRIRQRPPRLPRPRPRPMCAPRP	0.195
RRIRQRPPRLPRPRPRPMCFPRP	-0.352
RRIRQRPPRLPRPRPRPMCNPRP	-0.389
RRIRQRPPRLPRPRPRPMCSPRP	-0.000965
RRIRQRPPRLPRPRPRPMCVPRP	-0.308
RRIRQRPPRLPRPRPRPMDFPRP	0.015
RRIRQRPPRLPRPRPRPMDSPRP	-0.01
RRIRQRPPRLPRPRPRPMEFPRP	0.0663
RRIRQRPPRLPRPRPRPMEYPRP	-0.479
RRIRQRPPRLPRPRPRPMFDPRP	-0.109
RRIRQRPPRLPRPRPRPMGLPRP	-0.0103
RRIRQRPPRLPRPRPRPMHAPRP	0.254
RRIRQRPPRLPRPRPRPMHLPRP	-0.157
RRIRQRPPRLPRPRPRPMIAPRP	-0.00222
RRIRQRPPRLPRPRPRPMIKPRP	-0.318
RRIRQRPPRLPRPRPRPMIMPRP	0.0999

Sequence	shrunken log2 fold change
RRIRQRPPRLPRPRPRPMKEPRP	-0.0272
RRIRQRPPRLPRPRPRPMLLPRP	-0.337
RRIRQRPPRLPRPRPRPMLWPRP	-0.00459
RRIRQRPPRLPRPRPRPMLYPRP	-0.282
RRIRQRPPRLPRPRPRPMNAPRP	0.0115
RRIRQRPPRLPRPRPRPMNHPRP	-0.337
RRIRQRPPRLPRPRPRPMPAPRP	0.178
RRIRQRPPRLPRPRPRPMPVPRP	-0.00339
RRIRQRPPRLPRPRPRPMQIPRP	0.0201
RRIRQRPPRLPRPRPRPMQLPRP	-0.15
RRIRQRPPRLPRPRPRPMRTPRP	0.661
RRIRQRPPRLPRPRPRPMSEPRP	0.0772
RRIRQRPPRLPRPRPRPMSGPRP	0.076
RRIRQRPPRLPRPRPRPMSNPRP	0.0758
RRIRQRPPRLPRPRPRPMSTPRP	-0.0212
RRIRQRPPRLPRPRPRPMSVPRP	0.0173
RRIRQRPPRLPRPRPRPMTHPRP	-0.466
RRIRQRPPRLPRPRPRPMTIPRP	-0.227
RRIRQRPPRLPRPRPRPMTRPRP	0.0107
RRIRQRPPRLPRPRPRPMWGPRP	-0.263
RRIRQRPPRLPRPRPRPNAYPRP	-0.279
RRIRQRPPRLPRPRPRPNDQPRP	-0.00615
RRIRQRPPRLPRPRPRPNDTPRP	-0.752
RRIRQRPPRLPRPRPRPNDVPRP	0.00724
RRIRQRPPRLPRPRPRPNGDPRP	0.0171
